In patent US20180177842A1 (CANIMGUIDE THERAPEUTICS, published 2018):
Ends that are not written are not given here.

T1: His-tagged P3028 (PGE73) (human, also: His tag, length and end not given here)
T1 construct: the tag is put first here only for want of a statement; also called His-tag-P3028; not shown: His tag
T1 peptide: VFDEFKPLVEEPQNLIK

B1: SEQ ID NO 9 (peptide)
peptide: KKLDTFMVKLSLFTER
notes: on PEPSCAN card; also called P28R with M in position 7
B2: SEQ ID NO 23 (peptide)
peptide: KKLDTFFVKLSLQTER
notes: on PEPSCAN card; also called P28R with Q in position 13
B3: SEQ ID NO 10 (peptide)
peptide: KKLDTFSVKLSLFTER
notes: on PEPSCAN card; also called P28R with S in position 7
B4: SEQ ID NO 22 (peptide)
peptide: KKLDTFFVKLSLMTER
notes: on PEPSCAN card; also called P28R with M in position 13
B5: SEQ ID NO 15 (peptide)
peptide: KKLDTFFVKLQLFTER
notes: on PEPSCAN card; also called P28R with Q in position 11
B6: SEQ ID NO 16 (peptide)
peptide: KKLDTFFVKLMLFTER
notes: on PEPSCAN card; also called P28R with M in position 11
B7: SEQ ID NO 24 (peptide)
peptide: KKLDTFFVKLSLHTER
notes: on PEPSCAN card; also called P28R with H in position 13
B8: SEQ ID NO 25 (peptide)
peptide: KKLDTFFVKLSLNTER
notes: on PEPSCAN card; also called P28R with N in position 13

These binders were tested against Artificial Cell Surface (ACS): biotinylated cell surface proteins of human PBMCs bound to a streptavidin column (human) (assay: adsorption on ACS column, MALDI-TOF ms).
YLSVVLNQLCVLHEKTPVSDRVTKCCCTESLVNRRPFSALEV [Asp-N-generated albumin fragment, SEQ ID NO 230] showed a Percent Absorbed of 37%.

Each binder was assayed against Artificial Cell Surface (ACS) (assay: ACS column adsorption of Asp-N-digested dHSA, MALDI-TOF MS).
LGEENFKALVLIAFAQYLQQCPFEDHVKLVNEVTEFAKTCVA [… (Asp-N-generated albumin fragment, SEQ ID NO: 228)] was tested, and the Percent Absorbed was 100%. YLSVVLNQLCVLHEKTPVSDRVTKCCCTESLVNRRPFSALEV [… (Asp-N-generated albumin fragment, SEQ ID NO: 230)] was tested, and the Percent Absorbed was 37%. Binder DETYVPKEFNAETFTHA [… (Asp-N-generated albumin fragment, SEQ ID NO: 220)] has a Percent Absorbed of 86%. LAKYICENQDSISSKLKECCEKPLLEKHCIAEVEN [… (Asp-N-generated albumin fragment, SEQ ID NO: 226)] was tested, and the Percent Absorbed was 100%. Binder KLCTVATLRETYGEMADCCAKQEPERNECFLQHK [… (Asp-N-generated albumin fragment, SEQ ID NO: 224)] has a Percent Absorbed of 100%. Binder VFLGMFLYEYARRHPDYSVVLLLRLAKTYETTLEKCCAAA [… LEKCCAAA (Asp-N-generated albumin fragment, SEQ ID NO: 227)] has a Percent Absorbed of 100%. DRVTKCCTESLVNRRPCFSALEV [… (Asp-N-generated albumin fragment, SEQ ID NO: 219)] showed a Percent Absorbed of 87%. ICTLSEKERQIKKQTALVELVKHKPKATKEQLKAVM [… (Asp-N-generated albumin fragment, SEQ ID NO: 225)] was tested, and the Percent Absorbed was 100%. DDKETCFAEEGKKLVAASQAALGL [… (Asp-N-generated albumin fragment, SEQ ID NO: 218)] was tested, and the Percent Absorbed was 100%. With RVTKCCTESLVNRRPCFSALEVDETYVPKEFNAETFTFHA [… (Asp-N-generated albumin fragment, SEQ ID NO: 229)] the Percent Absorbed was 100%. Work on DKLCTVATLRETYGEM [… (Asp-N-generated albumin fragment, SEQ ID NO: 222)] yielded a Percent Absorbed of 65%. Work on DSISSKLKECCEKPLLEKSHCIAEVEN [… (Asp-N-generated albumin fragment, SEQ ID NO: 221)] yielded a Percent Absorbed of 65%. YSVVLLLRLAKTYETTLEKCCAAADPHECYAKVF [… (Asp-N-generated albumin fragment, SEQ ID NO: 223)] was tested, and the Percent Absorbed was 100%. DHVKLVNEVTEFAKTCVA [… (Asp-N-generated albumin fragment, SEQ ID NO: 217)] was tested, and the Percent Absorbed was 100%.

What follows are binders tested against Artificial Cell Surface (ACS) (assay: ACS column adsorption of trypsin-digested dHSA, MALDI-TOF MS).
In the case of QEPERNECFLQHK (not fully specified) [… (trypsin-generated albumin fragment, SEQ ID NO: 207)], the Percent Absorbed is reported as 25%. Binder CCAAADPHECYAK [… (trypsin-generated albumin fragment, SEQ ID NO: 204)] has a Percent Absorbed of 32%. VPQVSTPTLVEVSR [… (trypsin-generated albumin fragment, SEQ ID NO: 197)] gave a Percent Absorbed of 59%. VFDEFKPLVEEPQNLIK [… (trypsin-generated albumin fragment, SEQ ID NO: 196)] was tested, and the Percent Absorbed was 60%. Work on FKDLGEENFK [… (trypsin-generated albumin fragment, SEQ ID NO: 213)] yielded a Percent Absorbed of 8%. KYLYEIAR [KYLYEIAR (trypsin-generated albumin fragment, SEQ ID NO: 194)] was tested, and the Percent Absorbed was 71%. Binder KVPQVSTPTLVEVSR [… (trypsin-generated albumin fragment, SEQ ID NO: 195)] has a Percent Absorbed of 64%. In the case of LDELRDEGK [… (trypsin-generated albumin fragment, SEQ ID NO: 215)], the Percent Absorbed is reported as 2%. With FQNALLVR [FQNALLVR (trypsin-generated albumin fragment, SEQ ID NO: 199)] the Percent Absorbed was 41%. CCTESLVNR [… (trypsin-generated albumin fragment, SEQ ID NO: 206)] gave a Percent Absorbed of 26%. Work on VHTECCHGDLLECADDR [… (trypsin-generated albumin fragment, SEQ ID NO: 212)] yielded a Percent Absorbed of 13%. Work on QEPERNECFLQHK (not fully specified) [… (trypsin-generated albumin fragment, SEQ ID NO: 211)] yielded a Percent Absorbed of 18%. RPCFSALEVDETYVPK [… (trypsin-generated albumin fragment, SEQ ID NO: 198)] was tested, and the Percent Absorbed was 42%. LCTVATLR [LCTVATLR (trypsin-generated albumin fragment, SEQ ID NO: 202)] gave a Percent Absorbed of 35%. Work on AAFTECCQAADK [… (trypsin-generated albumin fragment, SEQ ID NO: 205)] yielded a Percent Absorbed of 29%. In the case of LKECCEKPLLEK [… (trypsin-generated albumin fragment, SEQ ID NO: 201)], the Percent Absorbed is reported as 36%. DDNPNLPR [DDNPNLPR (trypsin-generated albumin fragment, SEQ ID NO: 216)] showed a Percent Absorbed of 1%. With AVMDDFAAFVEK [… (trypsin-generated albumin fragment, SEQ ID NO: 208)] the Percent Absorbed was 23%. Binder YLYEIAR [YLYEIAR (trypsin-generated albumin fragment, SEQ ID NO: 203)] has a Percent Absorbed of 34%. Work on NECFLQHK [NECFLQHK (trypsin-generated albumin fragment, SEQ ID NO: 209)] yielded a Percent Absorbed of 22%. SLHTLFGDK [… (trypsin-generated albumin fragment, SEQ ID NO: 200)] showed a Percent Absorbed of 36%. YICENQDSISSK [… (trypsin-generated albumin fragment, SEQ ID NO: 214)] showed a Percent Absorbed of 3%.

Biological target: T1, His-tagged P3028 (PGE73)
Experiment: PEPSCAN ELISA: peptide on chip, His-tagged P3028 in solution, anti-His mAb and rampo conjugate
Protocol: After washing, the peroxidase substrate 2,2′-azine-di-3-ethylbenzthiazoline sulfonate (ABTS) and 2 μL of 3% H2O2 were added. The binding capacity of the mAb was measured as a color development at 405 nm (optical density, OD405). The color development was quantified with a charge-coupled device (CCD)—camera and an image processing system.
The OD405-values obtained by a CCD-camera was considered as raw data values (“rampo values,” “rampo units,” or “rampo scores”). […] First the CCD-camera made a picture of the card before peroxidase coloring and then again a picture after the peroxidase coloring. […] These values were copied into an excel file and labeled as a raw data file. […] Sometimes a well can contain an air-bubble resulting in a false-positive value. If manual inspection of the cards detect an air-bubble the value are set to 0 for well.
For B1, the rampo value was > 700 rampo units. In the case of B2, the rampo value is reported as > 800 rampo units. For B3, the rampo value was > 700 rampo units. In the case of B4, the rampo value is reported as > 800 rampo units. In the case of B5, the rampo value is reported as > 700 rampo units. B6 was tested, and the rampo value was > 700 rampo units. In the case of B7, the rampo value is reported as > 800 rampo units. In the case of B8, the rampo value is reported as > 800 rampo units.
